# B1: Phosphatidylinositol 4,5-bisphosphate 3-kinase catalytic subunit delta isoform (Homo sapiens), O00329 (parent)
# chain: MPPGVDCPMEFWTKEENQSVVVDFLLPTGVYLNFPVSRNANLSTIKQLLWHRAQYEPLFHMLSGPEAYVFTCINQTAEQQELEDEQRRLCDVQPFLPVLRLVAREGDRVKKLINSQISLLIGKGLHEFDSLCDPEVNDFRAKMCQFCEEAAARRQQLGWEAWLQYSFPLQLEPSAQTWGPGTLRLPNRALLVNVKFEGSEESFTFQVSTKDVPLALMACALRKKATVFRQPLVEQPEDYTLQVNGRHEYLYGSYPLCQFQYICSCLHSGLTPHLTMVHSSSILAMRDEQSNPAPQVQKPRAKPPPIPAKKPSSVSLWSLEQPFRIELIQGSKVNADERMKLVVQAGLFHGNEMLCKTVSSSEVSVCSEPVWKQRLEFDINICDLPRMARLCFALYAVIEKAKKARSTKKKSKKADCPIAWANLMLFDYKDQLKTGERCLYMWPSVPDEKGELLNPTGTVRSNPNTDSAAALLICLPEVAPHPVYYPALEKILELGRHSECVHVTEEEQLQLREILERRGSGELYEHEKDLVWKLRHEVQEHFPEALARLLLVTKWNKHEDVAQMLYLLCSWPELPVLSALELLDFSFPDCHVGSFAIKSLRKLTDDELFQYLLQLVQVLKYESYLDCELTKFLLDRALANRKIGHFLFWHLRSEMHVPSVALRFGLILEAYCRGSTHHMKVLMKQGEALSKLKALNDFVKLSSQKTPKPQTKELMHLCMRQEAYLEALSHLQSPLDPSTLLAEVCVEQCTFMDSKMKPLWIMYSNEEAGSGGSVGIIFKNGDDLRQDMLTLQMIQLMDVLWKQEGLDLRMTPYGCLPTGDRTGLIEVVLRSDTIANIQLNKSNMAATAAFNKDALLNWLKSKNPGEALDRAIEEFTLSCAGYCVATYVLGIGDRHSDNIMIRESGQLFHIDFGHFLGNFKTKFGINRERVPFILTYDFVHVIQQGKTNNSEKFERFRGYCERAYTILRRHGLLFLHLFALMRAAGLPELSCSKDIQYLKDSLALGKTEEEALKHFRVKFNEALRESWKTKVNWLAHNVSKDNRQ
# Variants of: B1
# Details: with p85a_human PIK3R1, P27986
# Chain of p85a_human PIK3R1, P27986 (P27986 whole entry): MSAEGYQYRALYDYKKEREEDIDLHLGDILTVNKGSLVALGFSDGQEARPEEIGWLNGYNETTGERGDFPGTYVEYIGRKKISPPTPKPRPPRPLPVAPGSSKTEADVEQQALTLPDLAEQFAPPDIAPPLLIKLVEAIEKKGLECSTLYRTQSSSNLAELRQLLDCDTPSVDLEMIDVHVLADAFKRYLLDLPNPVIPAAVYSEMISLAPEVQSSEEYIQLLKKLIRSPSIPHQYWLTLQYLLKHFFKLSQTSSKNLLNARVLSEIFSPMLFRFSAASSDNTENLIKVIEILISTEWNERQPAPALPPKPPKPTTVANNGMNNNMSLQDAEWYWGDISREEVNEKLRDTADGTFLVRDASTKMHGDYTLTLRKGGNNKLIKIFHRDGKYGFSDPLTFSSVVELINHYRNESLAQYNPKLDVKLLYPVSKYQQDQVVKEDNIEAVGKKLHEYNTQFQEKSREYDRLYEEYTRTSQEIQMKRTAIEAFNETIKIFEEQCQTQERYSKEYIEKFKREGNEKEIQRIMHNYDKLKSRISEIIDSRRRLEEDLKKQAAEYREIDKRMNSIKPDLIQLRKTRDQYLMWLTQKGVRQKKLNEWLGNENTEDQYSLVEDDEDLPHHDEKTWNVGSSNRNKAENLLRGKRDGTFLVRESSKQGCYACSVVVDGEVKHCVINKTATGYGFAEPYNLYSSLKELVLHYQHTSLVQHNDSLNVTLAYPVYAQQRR
row,Variant,effect of a mutation on the interaction
1,Y524S,with no effect
